B1: THAP domain-containing protein 1 (Homo sapiens), Q9NVV9 (parent)
chain: MVQSCSAYGCKNRYDKDKPVSFHKFPLTRPSLCKEWEAAVRRKNFKPTKYSSICSEHFTPDCFKRECNNKLLKENAVPTIFLCTEPHDKKEDLLEPQEQLPPPPLPPPVSQVDAAIGLLMPPLQTPVNLSVFCDHNYTVEDTMHQRKRIHQLEQQVEKLRKKLKTAQQRCRRQERQLEKLKEVVHFQKEKDDVSERGYVILPNDYFEIVEVPA
B2: Forkhead box protein P3 (Homo sapiens), Q9BZS1 (parent)
chain: MPNPRPGKPSAPSLALGPSPGASPSWRAAPKASDLLGARGPGGTFQGRDLRGGAHASSSSLNPMPPSQLQLPTLPLVMVAPSGARLGPLPHLQALLQDRPHFMHQLSTVDAHARTPVLQVHPLESPAMISLTPPTTATGVFSLKARPGLPPGINVASLEWVSREPALLCTFPNPSAPRKDSTLSAVPQSSYPLLANGVCKWPGCEKVFEEPEDFLKHCQADHLLDEKGRAQCLLQREMVQSLEQQLVLEKEKLSAMQAHLAGKMALTKASSVASSDKGSCCIVAAGSQGPVVPAWSGPREAPDSLFAVRRHLWGSHGNSTFPEFLHNMDYFKFHNMRPPFTYATLIRWAILEAPEKQRTLNEIYHWFTRMFAFFRNHPATWKNAIRHNLSLHKCFVRVESEKGAVWTVDELEFRKKRSQRPSRCSNPTPGP
B3: Chorion-specific transcription factor GCMb (Homo sapiens), O75603 (parent)
chain: MPAAAVQEAVGVCSYGMQLSWDINDPQMPQELALFDQFREWPDGYVRFIYSSDEKKAQRHLSGWAMRNTNNHNGHILKKSCLGVVVCTQACTLPDGSRLQLRPAICDKARLKQQKKACPNCHSALELIPCRGHSGYPVTNFWRLDGNAIFFQAKGVHDHPRPESKSETEARRSAIKRQMASFYQPQKKRIRESEAEENQDSSGHFSNIPPLENPEDFDIVTETSFPIPGQPCPSFPKSDVYKATCDLATFQGDKMPPFQKYSSPRIYLPRPPCSYELANPGYTNSSPYPTLYKDSTSIPNDTDWVHLNTLQCNVNSYSSYERSFDFTNKQHGWKPALGKPSLVERTNHGQFQAMATRPYYNPELPCRYLTTPPPGAPALQTVITTTTKVSYQAYQPPAMKYSDSVREVKSLSSCNYAPEDTGMSVYPEPWGPPVTVTRAASPSGPPPMKIAGDCRAIRPTVAIPHEPVSSRTDEAETWDVCLSGLGSAVSYSDRVGPFFTYNNEDF
B4: Mothers against decapentaplegic homolog 3 (Homo sapiens), P84022 (parent)
chain: MSSILPFTPPIVKRLLGWKKGEQNGQEEKWCEKAVKSLVKKLKKTGQLDELEKAITTQNVNTKCITIPRSLDGRLQVSHRKGLPHVIYCRLWRWPDLHSHHELRAMELCEFAFNMKKDEVCVNPYHYQRVETPVLPPVLVPRHTEIPAEFPPLDDYSHSIPENTNFPAGIEPQSNIPETPPPGYLSEDGETSDHQMNHSMDAGSPNLSPNPMSPAHNNLDLQPVTYCEPAFWCSISYYELNQRVGETFHASQPSMTVDGFTDPSNSERFCLGLLSNVNRNAAVELTRRHIGRGVRLYYIGGEVFAECLSDSAIFVQSPNCNQRYGWHPATVCKIPPGCNLKIFNNQEFAALLAQSVNQGFEAVYQLTRMCTIRMSFVKGWGAEYRRQTVTSTPCWIELHLNGPLQWLDKVLTQMGSPSIRCSSVS
partner: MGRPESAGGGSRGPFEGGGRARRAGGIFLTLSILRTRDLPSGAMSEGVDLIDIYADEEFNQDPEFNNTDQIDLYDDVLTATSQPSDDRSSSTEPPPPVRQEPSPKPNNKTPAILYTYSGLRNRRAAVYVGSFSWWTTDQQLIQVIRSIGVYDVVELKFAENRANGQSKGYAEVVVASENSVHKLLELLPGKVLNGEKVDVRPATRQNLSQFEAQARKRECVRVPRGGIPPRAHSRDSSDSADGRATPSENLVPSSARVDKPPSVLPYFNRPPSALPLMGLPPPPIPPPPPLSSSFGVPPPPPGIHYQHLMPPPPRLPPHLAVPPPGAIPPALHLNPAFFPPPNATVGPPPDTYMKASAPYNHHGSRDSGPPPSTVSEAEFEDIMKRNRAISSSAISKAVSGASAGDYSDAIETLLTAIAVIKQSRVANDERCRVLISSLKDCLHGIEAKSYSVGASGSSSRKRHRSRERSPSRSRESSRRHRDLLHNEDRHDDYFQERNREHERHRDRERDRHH
B5: Fibulin-5 (Homo sapiens), Q9UBX5 (parent)
chain: MPGIKRILTVTILALCLPSPGNAQAQCTNGFDLDRQSGQCLDIDECRTIPEACRGDMMCVNQNGGYLCIPRTNPVYRGPYSNPYSTPYSGPYPAAAPPLSAPNYPTISRPLICRFGYQMDESNQCVDVDECATDSHQCNPTQICINTEGGYTCSCTDGYWLLEGQCLDIDECRYGYCQQLCANVPGSYSCTCNPGFTLNEDGRSCQDVNECATENPCVQTCVNTYGSFICRCDPGYELEEDGVHCSDMDECSFSEFLCQHECVNQPGTYFCSCPPGYILLDDNRSCQDINECEHRNHTCNLQQTCYNLQGGFKCIDPIRCEEPYLRISDNRCMCPAENPGCRDQPFTILYRDMDVVSGRSVPADIFQMQATTRYPGAYYIFQIKSGNEGREFYMRQTGPISATLVMTRPIKGPREIQLDLEMITVNTVINFRGSSVIRLRIYVSQYPF
partner: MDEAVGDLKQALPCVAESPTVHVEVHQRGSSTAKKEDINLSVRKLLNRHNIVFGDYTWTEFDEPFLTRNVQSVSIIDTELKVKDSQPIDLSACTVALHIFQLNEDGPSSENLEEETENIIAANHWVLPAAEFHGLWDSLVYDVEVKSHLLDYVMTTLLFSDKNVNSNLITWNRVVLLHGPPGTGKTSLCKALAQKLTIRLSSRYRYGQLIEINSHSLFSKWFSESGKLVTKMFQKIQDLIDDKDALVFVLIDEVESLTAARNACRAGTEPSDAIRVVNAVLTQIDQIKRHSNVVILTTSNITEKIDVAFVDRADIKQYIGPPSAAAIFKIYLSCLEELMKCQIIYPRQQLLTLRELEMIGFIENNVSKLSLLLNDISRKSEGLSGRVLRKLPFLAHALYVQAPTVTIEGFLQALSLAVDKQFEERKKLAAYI
B6: Carbonic anhydrase-related protein (Homo sapiens), P35219 (parent)
chain: MADLSFIEDTVAFPEKEEDEEEEEEGVEWGYEEGVEWGLVFPDANGEYQSPINLNSREARYDPSLLDVRLSPNYVVCRDCEVTNDGHTIQVILKSKSVLSGGPLPQGHEFELYEVRFHWGRENQRGSEHTVNFKAFPMELHLIHWNSTLFGSIDEAVGKPHGIAIIALFVQIGKEHVGLKAVTEILQDIQYKGKSKTIPCFNPNTLLPDPLLRDYWVYEGSLTIPPCSEGVTWILFRYPLTISQLQIEEFRRLRTHVKGAELVEGCDGILGDNFRPTQPLSDRVIRAAFQ
partner: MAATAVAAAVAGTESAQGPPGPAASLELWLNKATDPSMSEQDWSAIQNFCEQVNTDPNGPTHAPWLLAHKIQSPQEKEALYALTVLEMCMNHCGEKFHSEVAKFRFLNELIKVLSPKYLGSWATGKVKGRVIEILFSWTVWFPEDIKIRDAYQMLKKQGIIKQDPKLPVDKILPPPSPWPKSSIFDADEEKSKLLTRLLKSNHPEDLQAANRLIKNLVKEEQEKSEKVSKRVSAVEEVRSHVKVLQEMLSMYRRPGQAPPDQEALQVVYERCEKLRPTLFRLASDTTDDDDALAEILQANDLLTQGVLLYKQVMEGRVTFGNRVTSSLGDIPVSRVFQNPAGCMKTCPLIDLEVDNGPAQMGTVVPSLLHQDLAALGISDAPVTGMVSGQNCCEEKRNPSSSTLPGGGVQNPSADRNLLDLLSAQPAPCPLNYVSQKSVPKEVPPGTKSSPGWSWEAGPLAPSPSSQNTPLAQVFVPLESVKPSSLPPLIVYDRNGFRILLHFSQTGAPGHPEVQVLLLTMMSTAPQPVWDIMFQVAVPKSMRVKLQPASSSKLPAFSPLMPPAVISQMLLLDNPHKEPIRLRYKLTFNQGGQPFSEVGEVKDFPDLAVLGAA
B7: Ribose-phosphate pyrophosphokinase 1 (Homo sapiens), P60891 (parent)
chain: MPNIKIFSGSSHQDLSQKIADRLGLELGKVVTKKFSNQETCVEIGESVRGEDVYIVQSGCGEINDNLMELLIMINACKIASASRVTAVIPCFPYARQDKKDKSRAPISAKLVANMLSVAGADHIITMDLHASQIQGFFDIPVDNLYAEPAVLKWIRENISEWRNCTIVSPDAGGAKRVTSIADRLNVDFALIHKERKKANEVDRMVLVGDVKDRVAILVDDMADTCGTICHAADKLLSAGATRVYAILTHGIFSGPAISRINNACFEAVVVTNTIPQEDKMKHCSKIQVIDISMILAEAIRRTHNGESVSYLFSHVPL
partner: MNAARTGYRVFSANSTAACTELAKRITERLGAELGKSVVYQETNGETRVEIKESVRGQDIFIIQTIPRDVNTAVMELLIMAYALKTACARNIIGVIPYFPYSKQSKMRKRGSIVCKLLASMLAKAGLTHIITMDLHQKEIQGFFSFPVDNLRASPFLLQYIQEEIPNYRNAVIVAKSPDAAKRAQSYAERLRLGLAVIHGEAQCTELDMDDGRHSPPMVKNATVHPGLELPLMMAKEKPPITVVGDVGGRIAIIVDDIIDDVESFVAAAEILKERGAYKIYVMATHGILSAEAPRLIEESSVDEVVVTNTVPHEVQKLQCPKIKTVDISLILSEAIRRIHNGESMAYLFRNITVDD

Variants of: B1
Settings: with RALYL

Row | effect of a mutation on the interaction | Variant
1 | with no effect | F81L

Variants of: B1
Settings: with nup62_human NUP62, P37198
Sequence of nup62_human NUP62, P37198 (P37198 whole entry): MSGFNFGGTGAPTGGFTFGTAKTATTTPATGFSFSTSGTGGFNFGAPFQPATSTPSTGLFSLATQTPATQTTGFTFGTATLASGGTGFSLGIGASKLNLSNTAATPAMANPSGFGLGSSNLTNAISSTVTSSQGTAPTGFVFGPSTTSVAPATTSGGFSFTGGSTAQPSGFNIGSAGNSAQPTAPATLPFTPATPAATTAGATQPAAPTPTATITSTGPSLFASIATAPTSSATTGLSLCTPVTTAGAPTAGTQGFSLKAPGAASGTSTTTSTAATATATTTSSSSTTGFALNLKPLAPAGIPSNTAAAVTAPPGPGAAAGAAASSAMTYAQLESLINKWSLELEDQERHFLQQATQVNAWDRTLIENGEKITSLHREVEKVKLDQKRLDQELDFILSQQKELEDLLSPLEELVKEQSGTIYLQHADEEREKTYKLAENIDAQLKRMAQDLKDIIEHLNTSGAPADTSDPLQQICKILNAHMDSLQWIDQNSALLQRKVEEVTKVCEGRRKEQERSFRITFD

Row | effect of a mutation on the interaction | Variant
2 | with no effect | F81L

Variants of: B2
Settings: with RBPMS

Row | Variant | effect of a mutation on the interaction
3 | Q70H | disrupting interaction strength
4 | G52V | with no effect

Continued, values first:

Row | effect of a mutation on the interaction | Variant
5 | with no effect | P187L
6 | disrupting interaction strength | I363V

Variants of: B2
Settings: with pr20e_human PRR20E

Row | Variant | effect of a mutation on the interaction
7 | Q70H | disrupting interaction strength
8 | G52V | with no effect

Further lines, results first:

Row | effect of a mutation on the interaction | Variant
9 | with no effect | P187L
10 | disrupting interaction strength | I363V

Variants of: B3
Settings: with crx_human CRX

Row | effect of a mutation on the interaction | Variant
11 | with no effect | G63S
12 | with no effect | G203S
13 | with no effect | R47L

Variants of: B3
Settings: with RBPMS

Row | effect of a mutation on the interaction | Variant
14 | disrupting interaction strength | G63S
15 | with no effect | G203S
16 | with no effect | R47L

Variants of: B4
Settings: with CPSF7, Q8N684-3

Row | effect of a mutation on the interaction | Variant
17 | with no effect | I170V
18 | with no effect | N197I

Variants of: B5
Settings: with pch2_human TRIP13, Q15645

Row | effect of a mutation on the interaction | Variant
19 | disrupting interaction strength | V60L

Variants of: B6
Settings: with gga2_human GGA2, Q9UJY4

Row | effect of a mutation on the interaction | Variant
20 | disrupting interaction strength | S100P

Variants of: B7
Settings: with kpra_human PRPSAP1, Q14558

Row | effect of a mutation on the interaction | Variant
21 | with no effect | N114S
22 | with no effect | D183H
23 | with no effect | D52H

Source: IntAct's records for PubMed 25910212
